Experimental findings from paper PMC7241850 are described below.

Test [1] has as its target HIV-1 Env E1 R563Q (HIV-1 (clade B, individual 653116)).
Test [2] addresses HIV-1 Env NE1 Q563R (HIV-1 (clade B, individual 653116)).

In the case of HIV-1 IIIB C34 Peptide, the IC50 of inhibition of infection of TZM-bl cells by pseudovirus (luciferase) is 0.6 µg/mL in test [1] and 0.04 µg/mL in test [2].
